# According to the supplement of paper PMC10065799, “High-throughput profiling of sequence recognition by tyrosine kinases and SH2 domains using bacterial peptide display” (eLife, 2023):
# What was measured:
# EPHB2 = EPHB2 (UniProt P29323); assay: phosphorylation enrichment, bacterial display (enrichment ratio); higher = better substrate or ligand; peptides without Tyr show the background
# FGFR1 = FGFR1 (UniProt P11362); assay: as above
# FGFR3 = FGFR3 (UniProt P22607); assay: as above
# AncSZ = assay: as above
# Hck = Hck (UniProt P08631); assay: as above
# EPHB1 = EPHB1 (UniProt P54762); assay: as above
# Jak2 = Jak2 (UniProt O60674); assay: as above
# Fer (mouse) = assay: as above
# MERTK = MERTK (UniProt Q12866); assay: as above
# c-Src = assay: as above
# Fes = Fes (UniProt P07332); assay: as above
# Fyn = Fyn (UniProt P06241); assay: as above
# c-Abl (mouse) = assay: as above
# SHP2-C SH2 = assay: SH2 binding enrichment of the phosphorylated peptide, bacterial display (enrichment ratio); higher = better substrate or ligand; peptides without Tyr show the background
# Grb2 SH2 = Grb2 SH2 (UniProt P62993); assay: as above
# c-Src SH2 = assay: as above
# 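Throughout, for SH2 binding enrichment of the phosphorylated peptide, bacterial display: peptide library displayed on the E. coli surface as eCPX fusions, selected cells deep-sequenced, score is each peptide's frequency after selection divided by its frequency in the input.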
# 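Throughout, for phosphorylation enrichment, bacterial display: 11-residue human phosphosite peptides and single-mutation variants displayed on the E. coli surface, counted by deep sequencing, each peptide's frequency after selection divided by its frequency in the unselected input library; frequency after pTyr selection over input frequency; kinase dosed for 20-30% of maximal phosphorylation in three min.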
# Sequence of Jak2 (O60674 whole entry, looked up): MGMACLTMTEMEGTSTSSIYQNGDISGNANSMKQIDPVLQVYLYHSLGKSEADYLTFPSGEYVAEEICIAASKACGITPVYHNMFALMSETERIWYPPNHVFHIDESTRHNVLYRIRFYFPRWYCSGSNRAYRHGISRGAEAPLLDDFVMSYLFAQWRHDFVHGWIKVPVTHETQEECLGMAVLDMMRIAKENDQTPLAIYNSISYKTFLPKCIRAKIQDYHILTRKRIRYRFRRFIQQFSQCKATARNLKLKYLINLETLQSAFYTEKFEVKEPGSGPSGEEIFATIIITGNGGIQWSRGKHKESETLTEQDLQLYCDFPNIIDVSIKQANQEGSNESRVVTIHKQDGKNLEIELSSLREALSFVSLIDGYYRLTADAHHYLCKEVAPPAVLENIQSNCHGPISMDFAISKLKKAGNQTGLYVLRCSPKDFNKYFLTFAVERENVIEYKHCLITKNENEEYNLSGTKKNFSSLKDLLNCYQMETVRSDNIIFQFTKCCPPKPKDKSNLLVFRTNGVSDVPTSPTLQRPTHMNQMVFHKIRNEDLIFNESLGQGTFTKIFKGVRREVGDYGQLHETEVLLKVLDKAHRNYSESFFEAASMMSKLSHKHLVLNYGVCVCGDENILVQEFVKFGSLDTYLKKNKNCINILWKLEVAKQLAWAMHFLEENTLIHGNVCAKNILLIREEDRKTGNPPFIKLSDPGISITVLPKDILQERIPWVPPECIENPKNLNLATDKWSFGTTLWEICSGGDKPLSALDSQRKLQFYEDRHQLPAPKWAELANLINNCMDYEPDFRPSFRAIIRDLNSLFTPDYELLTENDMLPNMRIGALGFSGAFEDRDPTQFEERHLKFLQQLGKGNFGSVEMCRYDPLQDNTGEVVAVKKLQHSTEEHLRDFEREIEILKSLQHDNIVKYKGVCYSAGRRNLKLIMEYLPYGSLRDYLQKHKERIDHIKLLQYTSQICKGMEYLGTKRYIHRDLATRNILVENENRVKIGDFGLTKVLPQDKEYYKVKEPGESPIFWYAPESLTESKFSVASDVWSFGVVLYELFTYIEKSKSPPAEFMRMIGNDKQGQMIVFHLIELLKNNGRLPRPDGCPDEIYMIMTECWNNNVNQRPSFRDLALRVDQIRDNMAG
# Sequence of EPHB2 (P29323 whole entry, looked up): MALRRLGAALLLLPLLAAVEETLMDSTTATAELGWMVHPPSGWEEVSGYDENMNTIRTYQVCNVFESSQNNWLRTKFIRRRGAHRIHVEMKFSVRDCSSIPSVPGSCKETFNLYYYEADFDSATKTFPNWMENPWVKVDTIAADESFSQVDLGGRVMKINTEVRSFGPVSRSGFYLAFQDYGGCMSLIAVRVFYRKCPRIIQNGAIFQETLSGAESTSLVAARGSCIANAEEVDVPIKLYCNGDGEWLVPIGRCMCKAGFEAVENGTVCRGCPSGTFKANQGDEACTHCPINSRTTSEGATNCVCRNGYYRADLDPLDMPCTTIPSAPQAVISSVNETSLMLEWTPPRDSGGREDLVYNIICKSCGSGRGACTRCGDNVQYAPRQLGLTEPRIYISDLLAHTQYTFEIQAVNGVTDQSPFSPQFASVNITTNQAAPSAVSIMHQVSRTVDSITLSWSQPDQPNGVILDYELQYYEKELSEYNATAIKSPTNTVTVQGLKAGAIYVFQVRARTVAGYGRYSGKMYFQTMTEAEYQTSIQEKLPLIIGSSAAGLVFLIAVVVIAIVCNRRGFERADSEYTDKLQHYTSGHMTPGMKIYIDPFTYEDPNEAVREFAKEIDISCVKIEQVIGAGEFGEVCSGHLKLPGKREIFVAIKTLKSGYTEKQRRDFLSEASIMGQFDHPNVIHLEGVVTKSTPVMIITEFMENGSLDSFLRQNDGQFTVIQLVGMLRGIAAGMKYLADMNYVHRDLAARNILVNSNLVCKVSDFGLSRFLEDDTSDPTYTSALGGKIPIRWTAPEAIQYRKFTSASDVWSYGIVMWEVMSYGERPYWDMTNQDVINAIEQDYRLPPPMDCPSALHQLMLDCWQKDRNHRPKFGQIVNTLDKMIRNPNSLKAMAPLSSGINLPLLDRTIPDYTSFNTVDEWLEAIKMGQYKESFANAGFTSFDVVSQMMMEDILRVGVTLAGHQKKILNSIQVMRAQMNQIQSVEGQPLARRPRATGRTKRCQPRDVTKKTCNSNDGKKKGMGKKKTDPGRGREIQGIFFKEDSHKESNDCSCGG
# Sequence of Fyn (P06241 whole entry, looked up): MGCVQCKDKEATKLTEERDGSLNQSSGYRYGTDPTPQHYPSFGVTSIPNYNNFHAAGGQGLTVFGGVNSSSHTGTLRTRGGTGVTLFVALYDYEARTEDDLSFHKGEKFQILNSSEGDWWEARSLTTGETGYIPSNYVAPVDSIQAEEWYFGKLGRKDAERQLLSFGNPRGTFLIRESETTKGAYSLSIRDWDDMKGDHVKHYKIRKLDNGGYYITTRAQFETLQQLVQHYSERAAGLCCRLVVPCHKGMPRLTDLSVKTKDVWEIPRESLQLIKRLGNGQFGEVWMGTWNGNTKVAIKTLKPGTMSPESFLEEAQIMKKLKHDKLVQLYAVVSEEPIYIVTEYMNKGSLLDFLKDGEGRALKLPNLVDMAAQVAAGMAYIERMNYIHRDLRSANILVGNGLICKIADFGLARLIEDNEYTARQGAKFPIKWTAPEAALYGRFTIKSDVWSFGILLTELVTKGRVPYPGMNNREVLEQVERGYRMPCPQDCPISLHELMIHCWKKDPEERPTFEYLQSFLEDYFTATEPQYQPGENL
# Sequence of EPHB1 (P54762 whole entry, looked up): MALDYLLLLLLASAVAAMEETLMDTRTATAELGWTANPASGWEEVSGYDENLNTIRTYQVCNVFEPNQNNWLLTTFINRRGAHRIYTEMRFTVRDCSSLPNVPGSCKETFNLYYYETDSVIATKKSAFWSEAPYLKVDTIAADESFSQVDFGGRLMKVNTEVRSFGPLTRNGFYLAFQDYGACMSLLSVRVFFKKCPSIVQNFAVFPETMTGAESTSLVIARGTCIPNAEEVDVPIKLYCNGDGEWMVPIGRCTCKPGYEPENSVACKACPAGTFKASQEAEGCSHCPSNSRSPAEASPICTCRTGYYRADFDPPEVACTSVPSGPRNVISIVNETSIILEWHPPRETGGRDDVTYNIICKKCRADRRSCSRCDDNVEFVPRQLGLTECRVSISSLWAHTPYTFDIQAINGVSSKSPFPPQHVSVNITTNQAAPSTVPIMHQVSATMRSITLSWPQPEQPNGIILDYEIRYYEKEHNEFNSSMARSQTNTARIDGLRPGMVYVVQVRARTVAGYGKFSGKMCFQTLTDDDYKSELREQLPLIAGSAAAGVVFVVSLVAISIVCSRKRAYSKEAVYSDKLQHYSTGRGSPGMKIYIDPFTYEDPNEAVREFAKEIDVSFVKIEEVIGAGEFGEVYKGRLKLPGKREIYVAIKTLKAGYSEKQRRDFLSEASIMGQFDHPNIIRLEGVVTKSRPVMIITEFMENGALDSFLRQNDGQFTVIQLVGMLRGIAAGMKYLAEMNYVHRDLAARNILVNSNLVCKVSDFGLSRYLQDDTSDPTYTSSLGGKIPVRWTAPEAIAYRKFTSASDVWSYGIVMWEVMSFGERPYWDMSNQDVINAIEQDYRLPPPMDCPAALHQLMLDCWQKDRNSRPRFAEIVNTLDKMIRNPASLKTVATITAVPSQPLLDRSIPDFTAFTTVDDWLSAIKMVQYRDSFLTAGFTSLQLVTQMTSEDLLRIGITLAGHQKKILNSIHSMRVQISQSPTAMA
# Sequence of Fes (P07332 whole entry, looked up): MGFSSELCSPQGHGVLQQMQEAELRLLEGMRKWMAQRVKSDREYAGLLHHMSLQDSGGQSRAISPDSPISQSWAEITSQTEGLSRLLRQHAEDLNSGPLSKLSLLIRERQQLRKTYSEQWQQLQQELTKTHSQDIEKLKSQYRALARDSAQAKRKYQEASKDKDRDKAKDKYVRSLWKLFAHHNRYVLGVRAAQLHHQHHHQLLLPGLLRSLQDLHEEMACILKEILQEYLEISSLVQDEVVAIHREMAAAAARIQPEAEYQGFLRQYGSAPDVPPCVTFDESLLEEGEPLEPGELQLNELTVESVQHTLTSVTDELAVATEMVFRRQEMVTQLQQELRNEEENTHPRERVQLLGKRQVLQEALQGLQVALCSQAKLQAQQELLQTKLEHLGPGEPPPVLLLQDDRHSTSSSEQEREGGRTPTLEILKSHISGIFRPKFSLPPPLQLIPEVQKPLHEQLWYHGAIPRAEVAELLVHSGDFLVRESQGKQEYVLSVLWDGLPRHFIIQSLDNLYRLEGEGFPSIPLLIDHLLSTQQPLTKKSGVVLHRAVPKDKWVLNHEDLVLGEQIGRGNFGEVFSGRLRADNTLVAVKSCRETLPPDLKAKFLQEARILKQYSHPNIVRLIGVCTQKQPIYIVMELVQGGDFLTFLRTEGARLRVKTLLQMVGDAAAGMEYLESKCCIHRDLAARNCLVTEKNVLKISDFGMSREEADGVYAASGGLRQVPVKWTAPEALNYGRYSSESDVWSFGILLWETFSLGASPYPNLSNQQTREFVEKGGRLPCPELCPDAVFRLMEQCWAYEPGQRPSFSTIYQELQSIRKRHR
# Sequence of Hck (P08631 whole entry, looked up): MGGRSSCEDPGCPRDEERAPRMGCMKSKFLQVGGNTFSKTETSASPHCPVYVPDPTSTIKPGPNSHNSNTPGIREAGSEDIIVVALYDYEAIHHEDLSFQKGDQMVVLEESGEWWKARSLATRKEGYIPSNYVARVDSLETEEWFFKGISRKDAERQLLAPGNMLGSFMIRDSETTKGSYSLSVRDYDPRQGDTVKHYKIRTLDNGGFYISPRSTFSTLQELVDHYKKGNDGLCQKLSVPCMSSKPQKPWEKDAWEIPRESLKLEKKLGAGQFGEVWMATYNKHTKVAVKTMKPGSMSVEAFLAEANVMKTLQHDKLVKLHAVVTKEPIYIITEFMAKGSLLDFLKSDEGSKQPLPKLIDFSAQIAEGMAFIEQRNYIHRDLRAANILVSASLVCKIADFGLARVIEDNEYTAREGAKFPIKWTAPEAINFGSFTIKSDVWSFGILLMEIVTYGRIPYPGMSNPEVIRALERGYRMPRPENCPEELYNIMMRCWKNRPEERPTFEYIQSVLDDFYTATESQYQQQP
Sequence,SH2 binding enrichment (SHP2-C SH2),SH2 binding enrichment (Grb2 SH2),SH2 binding enrichment (c-Src SH2),phosphorylation enrichment (EPHB2),phosphorylation enrichment (FGFR1),phosphorylation enrichment (FGFR3),phosphorylation enrichment (AncSZ),phosphorylation enrichment (Hck),phosphorylation enrichment (EPHB1),phosphorylation enrichment (Jak2),phosphorylation enrichment (Fer (mouse)),phosphorylation enrichment (MERTK),phosphorylation enrichment (c-Src),phosphorylation enrichment (Fes),phosphorylation enrichment (Fyn),phosphorylation enrichment (c-Abl (mouse))
EGWQVYRLGAR [MISP_Y95],0.662,0.901,0.515,0.439,0.5,0.607,0.9,1.12,0.493,0.697,0.396,0.423,4.5,0.857,2.59,0.625
EIELAYRRRPP [GRIN2B_Y1109],0.569,0.642,0.387,0.451,0.41,0.455,0.661,0.433,0.448,0.556,0.458,0.385,0.353,0.587,0.45,0.437
EIHTQYEAMAS [GFAP_Y242_R239H],0.487,0.885,2.9,0.566,0.527,0.491,0.712,0.539,0.386,0.642,0.677,0.428,0.383,0.753,0.514,0.42
EKEQNYDLTQV [ECD_Y448_E452Q],0.508,0.79,0.486,0.612,0.612,0.782,1.24,0.528,0.513,1.07,1.17,0.569,0.506,1.33,0.557,1.42
EKKDVYKAGEQ [CFH_Y1008],0.549,0.954,0.596,0.643,0.434,0.482,1.08,0.386,0.336,0.555,0.624,0.425,0.394,0.675,0.404,0.475
EKKKYYDTKIE [CASP5_Y104],0.505,0.752,0.498,0.518,0.365,0.637,0.863,0.511,0.366,0.779,0.381,0.443,0.452,1.03,0.486,0.761
ELRGTYTSLQQ [KIF3C_Y574],4.42,0.775,3.05,0.481,0.489,0.535,0.705,0.956,0.398,0.777,0.428,0.434,1.39,0.869,0.978,0.684
EQYELYCEMGS [CBL_Y371],0.776,0.89,0.629,8.68,4.55,4.12,3.8,5.35,7.29,1.37,3.7,5.03,4.14,1.61,4.26,1.08
ERLWDYGMSSS [F8_Y1728],0.742,0.779,0.597,0.578,0.433,0.742,0.971,0.459,0.612,0.778,0.483,0.399,0.419,1.06,0.415,0.767
ERMKVYVPIGF [EPHX1_Y393_T396I],0.909,0.76,0.556,0.497,0.412,0.538,0.67,0.622,0.623,0.597,0.425,0.478,0.907,0.742,1.13,0.543
ERWLKYFPIEQ [HS3ST5_Y244],1.05,1.25,0.729,0.566,0.452,0.798,1.05,0.436,0.401,0.855,0.566,0.451,0.288,1.27,0.361,0.624
ESDGAYIQRMQ [CCDC137_Y125_H127Q],0.708,0.731,0.468,0.496,0.385,0.54,0.687,0.446,0.474,0.985,0.417,0.43,0.456,0.772,0.423,0.599
ESKKHYGYSLY [ANXA3_Y295_F291S],0.963,0.704,0.913,0.455,0.408,0.474,0.595,0.646,0.413,0.551,0.453,0.486,0.541,0.593,0.454,0.435
ESMLRYDVYGG [STOX1_Y607_E608D],0.62,0.996,0.723,1.08,0.482,0.705,0.96,1.3,0.646,0.704,0.462,0.918,1.29,0.972,1.04,0.529
ESPGLCGFLNV [BCR_Y910_Y910C],0.63,0.622,0.377,0.617,0.557,0.72,1.01,0.487,0.595,0.979,0.476,0.519,0.453,1.38,0.494,0.844
EVVGRYSVHYA [MLH1_Y183_N187Y],0.808,0.75,0.544,0.5,0.462,0.588,0.751,0.38,0.475,0.823,0.416,0.46,0.404,1.03,0.392,0.649
EWLRRHLENGK [HLA-A_Y195_Y195H],0.839,0.823,0.6,0.481,0.429,0.552,0.578,0.409,0.39,0.824,0.34,0.34,0.331,0.811,0.302,0.57
EYGRRYGFSRQ [CCDC93_Y209],0.572,0.676,0.474,0.393,0.389,0.588,0.577,0.438,0.41,0.475,0.309,0.534,0.419,0.646,0.424,0.525
FEEDPYLVVNP [MCM6_Y810_YF],0.557,0.769,0.507,0.6,1.23,1.62,1.87,1.04,0.743,1.54,0.886,0.533,2.65,1.46,1.88,0.87
FFHCTYKKRMI [CLEC12A_Y242_YF],1.15,1.28,0.944,0.612,0.386,0.637,0.894,0.468,0.444,0.816,0.39,0.321,0.39,1.06,0.364,0.532
FFNSEYGELSE [FLT4_Y1337_YF],0.734,0.943,0.468,0.567,0.479,0.728,1.2,0.791,0.566,1.02,0.533,0.399,1.25,1.24,1.19,0.875
FGPPQYNMQFS [ERBB2IP_Y977_I979M_YF],0.653,0.932,0.529,0.427,0.448,0.452,0.64,0.52,0.414,0.49,0.306,0.376,0.372,0.679,0.456,0.383

# Now from value to sequence, other results behind:
SH2 binding enrichment (SHP2-C SH2),SH2 binding enrichment (Grb2 SH2),SH2 binding enrichment (c-Src SH2),Sequence,phosphorylation enrichment (EPHB2),phosphorylation enrichment (FGFR1),phosphorylation enrichment (FGFR3),phosphorylation enrichment (AncSZ),phosphorylation enrichment (Hck),phosphorylation enrichment (EPHB1),phosphorylation enrichment (Jak2),phosphorylation enrichment (Fer (mouse)),phosphorylation enrichment (MERTK),phosphorylation enrichment (c-Src),phosphorylation enrichment (Fes),phosphorylation enrichment (Fyn),phosphorylation enrichment (c-Abl (mouse))
0.878,1.06,0.584,EEQKKYYNAVK [SCN5A_Y1494_M1498V],0.433,0.425,0.486,0.651,0.496,0.368,0.625,0.393,0.426,0.548,0.789,0.429,0.574
0.696,0.699,0.416,EGQKIYIDDNN [PIP4K2A_Y246],0.539,0.584,0.667,1.04,0.548,0.586,0.984,0.484,0.412,0.467,1.15,0.568,0.74
0.64,0.735,0.642,EQKKFSNAMKK [SCN5A_Y1495_Y1495S_YF],0.345,0.378,0.693,0.474,0.364,0.229,0.315,0.331,0.326,0.401,0.473,0.293,0.375
0.527,0.751,0.381,EQKKFYNAMKN [SCN5A_Y1495_K1500N_YF],0.33,0.366,0.427,0.458,0.388,0.297,0.41,0.451,0.458,0.409,0.43,0.367,0.446
1.01,1.16,0.696,EQKKYYNAVKK [SCN5A_Y1495_M1498V],0.34,0.425,0.466,0.529,0.352,0.341,0.634,0.414,0.563,0.476,0.63,0.328,0.511
0.678,0.728,3.83,EYDRLYEEYTR [PIK3R1_Y467],7,0.826,0.889,2.49,6.46,4.27,1.21,6.02,2.8,5.99,1.43,7.8,1.34
0.669,1.02,0.469,FADIAYNYRQG [PAH_Y166_H170Q],0.454,0.412,0.728,0.75,0.507,0.713,0.661,0.471,0.43,0.522,0.872,0.482,0.594
0.634,0.731,0.841,FDAHNYHPLPV [OAT_Y55_G51D_YF],0.762,10.7,5.97,0.731,1.1,0.635,1.02,1.13,1.09,0.556,0.734,0.501,0.807
0.531,0.626,0.382,FDDGKYVFVVT [RPS6KA3_Y488_YF],0.545,0.632,0.911,1.38,0.572,0.652,1.46,0.513,0.474,0.507,1.49,0.493,0.995
1.55,1.6,0.861,FFVVEYRDQKP [MUC17_Y4332_YF],0.647,0.612,0.803,1.05,0.515,0.657,1.03,0.53,0.374,0.566,1.27,0.474,0.617
1.38,1.46,0.865,FFVVEYRNQKP [MUC17_Y4332_D4334N_YF],0.841,0.581,0.98,1.32,0.687,0.795,1.55,0.82,0.413,0.608,1.65,0.623,1.52
